Measurements taken from patent US20240376214A1, “ANTI-C-MET ANTIBODIES AND ANTIBODY-DRUG CONJUGATES” (BYONDIS B.V., priority 2021, published 2024).

Key:
[1] = molecular target: T1, human c-Met (HGFR), full length, on the cell surface (human, UniProt P08581 25-1390); test: flow cytometry, NCI-H596 cells; EC50 with 50 ng/mL HGF against EC50 without HGF
T1 construct: Endogenous c-Met on human tumor cell lines MKN45, NCI-H596, PC-3 and HepG2; also called hepatocyte growth factor receptor; mesenchymal-epithelial transition factor
T1 sequence (P08581 25-1390 limits assumed): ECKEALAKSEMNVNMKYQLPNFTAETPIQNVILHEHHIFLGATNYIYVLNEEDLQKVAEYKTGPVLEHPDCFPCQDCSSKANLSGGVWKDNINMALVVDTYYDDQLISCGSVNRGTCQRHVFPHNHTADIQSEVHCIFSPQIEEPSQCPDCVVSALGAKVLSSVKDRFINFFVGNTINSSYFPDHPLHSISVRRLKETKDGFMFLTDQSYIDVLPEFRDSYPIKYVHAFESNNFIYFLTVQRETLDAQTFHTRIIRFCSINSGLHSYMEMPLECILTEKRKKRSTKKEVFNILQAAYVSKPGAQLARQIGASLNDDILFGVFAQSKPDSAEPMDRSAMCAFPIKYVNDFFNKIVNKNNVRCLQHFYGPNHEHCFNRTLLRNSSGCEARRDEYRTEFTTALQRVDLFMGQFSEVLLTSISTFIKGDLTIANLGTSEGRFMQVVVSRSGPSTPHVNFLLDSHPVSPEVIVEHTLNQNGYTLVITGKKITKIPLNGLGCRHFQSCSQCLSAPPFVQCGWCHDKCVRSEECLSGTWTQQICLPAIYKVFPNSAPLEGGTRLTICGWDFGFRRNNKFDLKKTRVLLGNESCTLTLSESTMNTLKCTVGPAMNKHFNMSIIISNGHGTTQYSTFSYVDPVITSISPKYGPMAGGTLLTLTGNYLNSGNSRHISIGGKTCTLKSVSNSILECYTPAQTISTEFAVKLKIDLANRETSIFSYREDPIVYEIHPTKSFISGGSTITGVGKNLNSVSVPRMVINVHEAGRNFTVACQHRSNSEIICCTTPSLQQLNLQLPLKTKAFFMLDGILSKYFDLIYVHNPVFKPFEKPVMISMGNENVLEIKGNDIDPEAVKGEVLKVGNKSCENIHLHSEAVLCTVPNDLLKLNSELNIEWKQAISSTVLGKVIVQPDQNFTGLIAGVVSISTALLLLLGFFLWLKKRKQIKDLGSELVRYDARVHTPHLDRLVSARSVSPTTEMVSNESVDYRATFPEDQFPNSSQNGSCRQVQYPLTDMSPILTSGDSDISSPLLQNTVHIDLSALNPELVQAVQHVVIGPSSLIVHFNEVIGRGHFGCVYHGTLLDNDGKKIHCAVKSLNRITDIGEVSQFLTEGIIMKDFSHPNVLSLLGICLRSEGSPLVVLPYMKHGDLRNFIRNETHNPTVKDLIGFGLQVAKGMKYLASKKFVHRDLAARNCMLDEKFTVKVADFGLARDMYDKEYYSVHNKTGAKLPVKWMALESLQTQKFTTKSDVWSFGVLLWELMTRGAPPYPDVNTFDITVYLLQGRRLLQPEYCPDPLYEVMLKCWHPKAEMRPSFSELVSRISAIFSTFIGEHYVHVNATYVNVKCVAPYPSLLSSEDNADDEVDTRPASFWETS
Experimental: (§1) Cellular binding of the in total 75 humanized anti-c-Met antibodies (originating from the three selected chimeric antibodies) was studied in human c-Met-positive tumor cell lines MKN45, NCI-H596 and PC-3, rhesus c-Met-positive tumor cell line 4 MBr-5, and human c-Met-negative tumor cell line MDA-MB-175-VII. Cells were used around 90% of confluence at the time of an assay, detached with Trypsin-Versene (EDTA) (Lonza) for 5-10 minutes, washed and adjusted to a concentration of 1×10⁶ cells/mL in ice-cold FACS buffer (PBS 1×, 0.1% v/w BSA, 0.02% v/v sodium azide (NaN₃)). Staining was performed in 96-well round-bottomed microtiter plates using ice-cold reagents/solutions at 4° C. to prevent the modulation and internalization of surface antigens. 100,000 cells/well were added to 96-well plates (100 μL/well) and centrifuged at 300×g for 3 minutes. In case of pre-incubation with HGF, the cells were resuspended in 50 ng/mL recombinant human HGF in FACS buffer (50 μL/well) and incubated for 30 minutes at 4° C., followed by two wash steps with 150 μL FACS buffer. Supernatant was discarded and cells were stained for 30 minutes with 50 μL of each antibody. Serial dilutions were made in ice-cold FACS buffer. Cells were washed twice by centrifugation at 300×g for 3 minutes and resuspended in 50 μL 6000-times diluted secondary F(ab′)₂ goat anti-human IgG (Fc fragment specific) antibody APC-conjugated (Jackson ImmunoResearch). Following a 30-minute incubation on ice, cells were washed again 2 times and resuspended in 150 μL ice-cold FACS buffer for FACS analysis. For analysis of the data, the Median Fluorescence Intensity (MFI) values were obtained.

[2] = molecular target: T2, biotinylated cynomolgus c-Met extracellular domain (cynomolgus, UniProt A0M8R7 25-932 (Papio anubis entry), biotinylated (site not stated)); test: SPR (Biacore T200, 37 C), biotinylated c-Met captured on CAP chip, mAb3b as analyte, 1:1 Langmuir fit; KD-obs
T2 construct: also called Cyno c-Met ECD
T2 sequence (A0M8R7 25-932 S170N/I621T limits assumed): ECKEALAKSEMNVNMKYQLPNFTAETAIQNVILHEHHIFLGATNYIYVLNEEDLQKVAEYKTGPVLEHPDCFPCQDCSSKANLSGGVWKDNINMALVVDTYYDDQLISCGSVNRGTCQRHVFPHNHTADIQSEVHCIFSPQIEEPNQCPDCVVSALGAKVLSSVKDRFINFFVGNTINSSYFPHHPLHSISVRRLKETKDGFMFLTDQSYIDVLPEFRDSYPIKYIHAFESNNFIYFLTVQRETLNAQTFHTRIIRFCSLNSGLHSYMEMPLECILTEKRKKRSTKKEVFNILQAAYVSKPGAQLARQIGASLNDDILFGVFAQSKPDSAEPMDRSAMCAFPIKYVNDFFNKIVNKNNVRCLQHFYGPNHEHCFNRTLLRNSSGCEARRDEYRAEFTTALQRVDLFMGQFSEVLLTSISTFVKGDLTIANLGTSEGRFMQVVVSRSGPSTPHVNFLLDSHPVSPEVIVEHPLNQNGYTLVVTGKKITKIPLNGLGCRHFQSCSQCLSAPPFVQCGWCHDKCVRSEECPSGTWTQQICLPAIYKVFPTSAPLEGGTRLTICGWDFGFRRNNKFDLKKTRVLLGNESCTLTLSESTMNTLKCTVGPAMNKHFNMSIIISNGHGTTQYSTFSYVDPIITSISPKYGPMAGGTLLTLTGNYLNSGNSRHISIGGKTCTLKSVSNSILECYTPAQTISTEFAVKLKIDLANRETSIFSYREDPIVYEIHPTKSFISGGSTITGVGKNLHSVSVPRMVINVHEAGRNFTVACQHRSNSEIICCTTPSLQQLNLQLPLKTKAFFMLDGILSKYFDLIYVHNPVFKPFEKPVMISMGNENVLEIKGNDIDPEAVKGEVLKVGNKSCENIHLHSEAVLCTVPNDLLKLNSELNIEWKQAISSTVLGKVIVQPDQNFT
Experimental: (§2) Binding analysis was performed on a Surface Plasmon Resonance instrument (Biacore© T200 system, GE Life Sciences) at 37° C. Biotinylated human or cyno c-Met was captured on the surface of a CAPchip made suitable for capture of biotinylated molecules (Sensor Chip CAP, GE Life Sciences) by injection of Biotin Capture reagent for 300 seconds at 2 μL/min on flow cell 1 and 2. A dilution of the biotinylated c-Met antigen in running buffer (10 mM HEPES buffer at 25° C., pH 7.4 with 150 mM NaCl, 3 mM EDTA and 0.005% v/v polyoxyethylene (20) sorbitan monolaurate (Surfactant P20) was injected at variable contact times to obtain different capture levels at 5 μL/min. The dilution and contact time for c-Met variant was estimated with the aim for a capture level around 20 RU. After a one-minute baseline, the mAb3b sample was injected in five increasing concentrations (0.037, 0.11, 0.33, 1 and 3 nM) at […] for 60 seconds with a 900-second dissociation time. The Rₘₐₓ for the interactions was between 5-10 RU. Regeneration was performed with 6 M guanidine-HCl, 0.25 M NaOH solution (120 seconds with flow rate of […]). […] The sensorgrams were fitted to a 1:1 Langmuir binding model and subsequently evaluated for the goodness of the fit (chi2), the uniqueness of the fit (U-value) and by visual inspection and biological relevance.

[3] = molecular target: T3, biotinylated human c-Met extracellular domain (human, UniProt P08581 25-932, biotinylated (site not stated)); test: as above
T3 construct: also called Human c-Met ECD
T3 sequence (P08581 25-932 limits assumed): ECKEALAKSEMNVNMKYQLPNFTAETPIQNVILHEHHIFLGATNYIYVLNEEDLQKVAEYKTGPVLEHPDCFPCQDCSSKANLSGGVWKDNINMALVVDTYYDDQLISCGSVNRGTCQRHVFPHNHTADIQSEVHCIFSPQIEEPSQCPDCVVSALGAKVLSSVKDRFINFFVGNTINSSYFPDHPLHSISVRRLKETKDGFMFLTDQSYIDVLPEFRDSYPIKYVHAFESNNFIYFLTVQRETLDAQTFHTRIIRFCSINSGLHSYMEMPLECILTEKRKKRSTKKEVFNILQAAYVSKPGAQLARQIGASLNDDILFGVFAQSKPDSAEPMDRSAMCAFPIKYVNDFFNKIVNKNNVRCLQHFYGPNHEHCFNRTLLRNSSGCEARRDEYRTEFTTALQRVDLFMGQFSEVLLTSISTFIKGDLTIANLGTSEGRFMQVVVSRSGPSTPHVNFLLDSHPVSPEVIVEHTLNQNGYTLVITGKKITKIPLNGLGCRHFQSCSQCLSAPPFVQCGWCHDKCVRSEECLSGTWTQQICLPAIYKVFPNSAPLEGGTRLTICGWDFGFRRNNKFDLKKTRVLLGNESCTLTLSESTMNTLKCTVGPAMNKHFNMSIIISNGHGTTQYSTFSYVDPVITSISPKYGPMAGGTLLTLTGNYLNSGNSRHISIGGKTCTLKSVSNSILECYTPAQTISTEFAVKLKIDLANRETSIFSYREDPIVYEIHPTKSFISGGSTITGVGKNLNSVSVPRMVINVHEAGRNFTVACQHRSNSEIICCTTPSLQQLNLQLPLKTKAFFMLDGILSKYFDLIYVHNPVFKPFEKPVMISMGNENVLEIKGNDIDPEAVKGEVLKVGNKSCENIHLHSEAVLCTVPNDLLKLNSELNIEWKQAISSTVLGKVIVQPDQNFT
Experimental: as §2

[4] = molecular target: T4, rhesus c-Met on 4MBr-5 cells (rhesus, UniProt F7H1K4 25-1381, Natural c-Met is cleaved at the furin site (KRKKR/S) into disulphide-linked alpha and beta subunits; given here as one mature polypeptide.); test: flow cytometry, 4MBr-5 cells, without HGF
T4 construct: also called rhesus c-Met antigen
T4 sequence (F7H1K4 entry or part of it limits assumed): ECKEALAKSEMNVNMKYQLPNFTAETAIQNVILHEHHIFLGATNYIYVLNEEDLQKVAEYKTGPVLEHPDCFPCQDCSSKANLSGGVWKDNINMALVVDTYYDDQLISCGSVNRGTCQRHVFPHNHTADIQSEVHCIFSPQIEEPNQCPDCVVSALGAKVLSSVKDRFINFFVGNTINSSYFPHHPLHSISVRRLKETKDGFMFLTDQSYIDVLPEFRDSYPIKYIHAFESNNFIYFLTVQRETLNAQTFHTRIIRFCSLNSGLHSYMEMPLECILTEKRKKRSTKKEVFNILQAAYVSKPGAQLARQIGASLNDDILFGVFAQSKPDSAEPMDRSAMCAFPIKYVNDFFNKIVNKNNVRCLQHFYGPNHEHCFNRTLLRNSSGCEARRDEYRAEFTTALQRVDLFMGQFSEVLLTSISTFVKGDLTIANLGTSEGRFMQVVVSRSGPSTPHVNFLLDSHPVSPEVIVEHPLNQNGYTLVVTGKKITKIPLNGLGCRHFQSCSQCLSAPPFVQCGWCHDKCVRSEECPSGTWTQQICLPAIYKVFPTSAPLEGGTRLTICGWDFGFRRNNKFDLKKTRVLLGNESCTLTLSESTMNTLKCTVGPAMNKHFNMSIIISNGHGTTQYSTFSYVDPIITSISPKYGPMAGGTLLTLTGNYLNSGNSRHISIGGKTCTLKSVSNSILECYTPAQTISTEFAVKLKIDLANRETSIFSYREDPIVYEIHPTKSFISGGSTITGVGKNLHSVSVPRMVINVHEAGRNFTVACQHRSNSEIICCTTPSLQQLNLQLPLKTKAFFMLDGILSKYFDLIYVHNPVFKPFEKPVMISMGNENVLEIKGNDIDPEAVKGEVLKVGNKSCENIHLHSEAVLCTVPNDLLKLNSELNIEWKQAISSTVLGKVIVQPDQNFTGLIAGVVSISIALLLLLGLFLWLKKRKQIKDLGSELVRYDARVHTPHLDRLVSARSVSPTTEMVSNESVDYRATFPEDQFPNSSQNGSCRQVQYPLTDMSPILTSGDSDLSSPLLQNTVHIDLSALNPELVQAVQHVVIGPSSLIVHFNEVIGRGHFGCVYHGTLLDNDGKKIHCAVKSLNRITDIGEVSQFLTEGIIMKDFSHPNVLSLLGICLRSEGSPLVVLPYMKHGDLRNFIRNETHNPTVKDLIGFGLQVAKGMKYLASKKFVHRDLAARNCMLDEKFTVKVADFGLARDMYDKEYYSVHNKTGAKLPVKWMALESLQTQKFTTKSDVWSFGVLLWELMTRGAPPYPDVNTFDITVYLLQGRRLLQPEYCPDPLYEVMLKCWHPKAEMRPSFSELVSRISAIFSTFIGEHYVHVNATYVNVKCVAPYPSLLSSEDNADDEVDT
Experimental: as §1

[5] = molecular target: T1, human c-Met (HGFR), full length, on the …; test: flow cytometry, NCI-H596 cells pre-incubated with 50 ng/mL HGF
Experimental: as §1

[6] = molecular target: T1, human c-Met (HGFR), full length, on the …; test: flow cytometry, NCI-H596 cells, without HGF
Experimental: as §1

[7] = molecular target: T1, human c-Met (HGFR), full length, on the …; test: flow cytometry, PC-3 cells; EC50 with 50 ng/mL HGF against EC50 without HGF
Experimental: as §1

[8] = molecular target: T4, rhesus c-Met on 4MBr-5 cells; test: flow cytometry, 4MBr-5 cells; EC50 with 50 ng/mL HGF against EC50 without HGF
Experimental: as §1

[9] = molecular target: T1, human c-Met (HGFR), full length, on the …; test: flow cytometry, PC-3 cells pre-incubated with 50 ng/mL HGF
Experimental: as §1

[10] = molecular target: T1, human c-Met (HGFR), full length, on the …; test: flow cytometry, MKN45 cells, without HGF
Experimental: as §1

[11] = molecular target: T1, human c-Met (HGFR), full length, on the …; test: cell binding on c-Met positive MKN45 cells, fluorescence readout RFU (R-PE), mean ± S.E.M. of two experiments in duplicate
[12] = molecular target: T4, rhesus c-Met on 4MBr-5 cells; test: flow cytometry, 4MBr-5 cells pre-incubated with 50 ng/mL HGF
Experimental: as §1

[13] = molecular target: T1, human c-Met (HGFR), full length, on the …; test: flow cytometry, PC-3 cells, without HGF
Experimental: as §1

Fold shift (HGF) [1]: 3.5 fold
Kd [2]: < 0.01 nM
Kd [3]: < 0.01 nM
EC50 [4]: 0.02 µg/mL
EC50 [5]: 0.07 µg/mL
EC50 [6]: 0.02 µg/mL
Fold shift (HGF) [7]: 2 fold
Fold shift (HGF) [8]: 1.8 fold
EC50 [9]: 0.06 µg/mL
EC50 [10]: 0.06 µg/mL
EC50 (read off the curve) [11]: ~0.06 µg/mL
EC50 [12]: 0.04 µg/mL
EC50 [13]: 0.03 µg/mL
B1: mAb3b (antibody, human IgG1, kappa, V domains shown)
VH: QVQLVQSGAEVKKPGASVKVSCKASGYTFTDYYLNWVRQACGQGLEWMGLIFPGNDKTEYSEKFKGRVTLTTDTSISTAYMELSSLTSDDTALYYCSGGDYGGFVYWGQGTLVTVSS
VL: DIQMTQSPSSLSASVGDRVTISCGASENIYGALNWYQQQPGKAPKVLIFGATNLADGVPSRFSGSGSGTDFTLTISSLQPEDFATYYCQNVLSSPLTFGQGTKLEIKR
notes: Humanized IgG1 kappa, HC-41C, from wt/41C-chi-mAb3; also called humanized HC-41C antibody mAb3b
